Positions of bridges follow the written chain, without caps; N, C: chain ends. No end group written: not given here.
B1: SA19 (peptide)
peptide: DICLPRWGCL-NH2
modifications: not fully specified (bridges); printed as DICLPRWGCLNH2; cysteine pairing not given here
notes: free peptide
B2: RB-B16 (peptide)
peptide: HRLVEDICLPRWGCLWGNDF
modifications: not fully specified (bridges); cysteine pairing not given here; also: phage-displayed
notes: on phage
B3: SA18 (peptide)
peptide: ICLPRWGCLW-NH2
modifications: not fully specified (bridges); printed as ICLPRWGCLWNH2; cysteine pairing not given here
notes: free peptide
B4: HC-R10 (peptide)
peptide: QRDMGDICLPRWGCLWEDGV
modifications: not fully specified (bridges); cysteine pairing not given here; also: phage-displayed
notes: on phage
B5: SA22 (peptide)
peptide: Ac-RLIEDICLPRWGCLWED-NH2
modifications: not fully specified (bridges); printed as Ac RLIEDICLPRWGCLWEDNH2; cysteine pairing not given here
notes: free peptide
B6: SA20 (peptide)
peptide: Ac-QRLIEDICLPRWGCLWEDDF-NH2
modifications: not fully specified (bridges); printed as Ac QRLIEDICLPRWGCLWEDDF NH2; cysteine pairing not given here
notes: free peptide
B7: SA25 (peptide)
peptide: Ac-EDICLPRWGCLWED-NH2
modifications: not fully specified (bridges); printed as Ac EDICLPRWGCLWEDNH2; cysteine pairing not given here
notes: free peptide
B8: RB-B3 (peptide)
peptide: QSYMEDICLPRWGCLSDDAS
modifications: not fully specified (bridges); cysteine pairing not given here; also: phage-displayed
notes: on phage
B9: RB-B1 (peptide)
peptide: RWQTEDVCLPKWGCLFGDGV
modifications: not fully specified (bridges); cysteine pairing not given here; also: phage-displayed
notes: on phage
B10: SA24 (peptide)
peptide: Ac-IEDICLPRWGCLWED-NH2
modifications: not fully specified (bridges); printed as Ac IEDICLPRWGCLWEDNH2; cysteine pairing not given here
notes: free peptide
B11: SA23 (peptide)
peptide: Ac-LIEDICLPRWGCLWED-NH2
modifications: not fully specified (bridges); printed as Ac LIEDICLPRWGCLWEDNH2; cysteine pairing not given here
notes: free peptide

Experiments:
rat serum albumin = biological target: T1, rat serum albumin (rat, UniProt P02770 25-608); test: phage binding
T1 construct: also called Rat SA; RSA
T1 sequence (P02770 25-608 limits assumed): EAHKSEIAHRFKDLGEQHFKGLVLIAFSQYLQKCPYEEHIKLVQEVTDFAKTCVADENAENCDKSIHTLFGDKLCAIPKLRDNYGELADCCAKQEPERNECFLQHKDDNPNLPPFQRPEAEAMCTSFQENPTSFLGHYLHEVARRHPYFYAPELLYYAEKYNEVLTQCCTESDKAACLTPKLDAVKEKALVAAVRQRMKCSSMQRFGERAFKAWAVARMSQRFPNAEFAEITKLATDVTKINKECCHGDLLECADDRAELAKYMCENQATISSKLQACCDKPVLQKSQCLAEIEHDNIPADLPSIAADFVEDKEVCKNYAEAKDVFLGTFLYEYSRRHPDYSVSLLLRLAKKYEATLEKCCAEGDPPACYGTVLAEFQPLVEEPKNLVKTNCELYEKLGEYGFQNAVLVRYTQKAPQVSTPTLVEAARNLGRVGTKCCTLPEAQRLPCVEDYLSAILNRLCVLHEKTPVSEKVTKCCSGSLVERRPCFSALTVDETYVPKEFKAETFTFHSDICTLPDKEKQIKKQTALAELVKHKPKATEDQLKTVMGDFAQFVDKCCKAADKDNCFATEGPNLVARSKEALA

rabbit serum albumin [1] = biological target: T2, rabbit serum albumin (rabbit, UniProt P49065 25-608); test: peptide competition; head prints RSA, read as rabbit
T2 construct: also called Rabbit SA; BuSA
T2 sequence (P49065 25-608 limits assumed): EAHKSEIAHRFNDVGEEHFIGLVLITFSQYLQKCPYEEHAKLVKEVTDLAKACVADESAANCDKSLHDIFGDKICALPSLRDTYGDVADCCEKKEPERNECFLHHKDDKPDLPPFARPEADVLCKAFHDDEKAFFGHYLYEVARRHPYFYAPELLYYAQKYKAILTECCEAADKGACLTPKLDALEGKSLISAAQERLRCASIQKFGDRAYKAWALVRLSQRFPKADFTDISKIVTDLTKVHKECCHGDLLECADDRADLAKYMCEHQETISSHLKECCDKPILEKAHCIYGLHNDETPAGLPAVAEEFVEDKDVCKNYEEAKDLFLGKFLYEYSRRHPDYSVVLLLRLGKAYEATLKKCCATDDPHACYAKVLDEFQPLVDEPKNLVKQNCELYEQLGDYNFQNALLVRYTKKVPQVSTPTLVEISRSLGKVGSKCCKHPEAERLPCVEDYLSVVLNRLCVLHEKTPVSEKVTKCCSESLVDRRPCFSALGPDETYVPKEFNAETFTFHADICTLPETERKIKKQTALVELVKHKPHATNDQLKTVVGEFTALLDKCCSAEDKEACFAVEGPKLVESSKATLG

human serum albumin = biological target: T3, human serum albumin (human, UniProt P02768 25-609); test: phage binding
T3 construct: also called Human SA; HuSA

rabbit serum albumin [2] = biological target: T2, rabbit serum albumin; test: phage binding

Binder	binding result (rat serum albumin)	IC50 (rabbit serum albumin [1])	other results
MDDICLHHWGCLWDE (on phage) [RBC-R1]	binds		
B1		24500 nM	
Ac-IEDICLPRWGCLWE-NH2 (disulfide 5-11 (inferred), free peptide) [SA30]		1800 nM	
EEDVCLPVWGCLWEG (on phage) [RBC-R20]	binds		
Ac-DICLPRWGCLWED-NH2 (disulfide 3-9 (inferred), free peptide) [SA26]		3120 nM	
MWDVCFPDWGCLWDV (not fully specified (bridges); cysteine pairing not given here, on phage) [RBC-R15]	binds		
Ac-EDICLPRWGCLW-NH2 (disulfide 4-10 (inferred), free peptide) [SA32]		2170 nM	
B2	binds		binding result (human serum albumin): binds; binding result (rabbit serum albumin [2]): binds
MFDLCLPKWGCLWGN (not fully specified (bridges); cysteine pairing not given here, on phage) [RBC-R12]	binds		
FEDLCVVRWGCLWGD (not fully specified (bridges); cysteine pairing not given here, on phage) [RBC-R6]	binds		
B3		125000 nM	
NWDLCFPDWGCLWDD (on phage) [RBC-R8]	binds		
DSCGDLLRLGLECWA (on phage) [RD-R6]	binds		
SEDFCLPVWGCLWED (not fully specified (bridges); cysteine pairing not given here, on phage) [RBC-R9]	binds		
B4	binds		binding result (human serum albumin): binds; binding result (rabbit serum albumin [2]): binds
Ac-RLIEDICLPRWGCLW-NH2 (disulfide 7-13 (inferred), free peptide) [SA31]		200 nM	
B5		430 nM	
B6		260 nM	
GEDWCDSTLLAFDLCGEGAR (on phage) [BA-B44]			binding result (rabbit serum albumin [2]): binds
EWDVCFPAWGCLWDQ (on phage) [RBC-R18]	binds		
Ac-DICLPRWGCL-NH2 (disulfide 3-9 (inferred), free peptide) [SA34]		28200 nM	
MELWCDSTLMAYDLCGDFNM (on phage) [BA-B39]			binding result (rabbit serum albumin [2]): binds
DFDLCLPDWGCLWDD (on phage) [RBC-R10]	binds		
LIFMEDVCLPQWGCLWEDGV (on phage) [RB-R16]	binds		binding result (human serum albumin): binds; binding result (rabbit serum albumin [2]): binds

Binder	binding result (rat serum albumin)	IC50 (rabbit serum albumin [1])	other results
B7		2730 nM	
WEDLCLPDWGCLWED (not fully specified (bridges); cysteine pairing not given here, on phage) [RBC-R5]	binds		
QGDFWDICLPRWGCLSGEGY (on phage) [RB-B10]	binds		binding result (rabbit serum albumin [2]): binds
VWDLCLPQWGCLWDE (on phage) [RBC-R11]	binds		
DTCSDLVGLGLECWA (on phage) [RD-R1]	binds		
MDDLCLPNWGCLWGD (not fully specified (bridges); cysteine pairing not given here, on phage) [RBC-R2]	binds		
FEDFCLPNWGCLWGS (on phage) [RBC-R4]	binds		
B8	binds		binding result (rabbit serum albumin [2]): binds
GENWCDWVLLAYDLCGEDNT (on phage) [BA-B37]			binding result (rabbit serum albumin [2]): binds
QGLIGDICLPRWGCLWGDSV (on phage; also called RB-R8) [RB-B12]	binds		binding result (human serum albumin): binds; binding result (rabbit serum albumin [2]): binds
Ac-RLIEDICLPRWGCL-NH2 (disulfide 7-13 (inferred), free peptide) [SA33]		4310 nM	
DTCADLVRLGLECWA (on phage) [RD-R2]	binds		
NTCADLVRLGLECWA (on phage) [RD-R7]	binds		
DTCEDLVRLGLECWA (on phage) [RD-R5]	binds		
EFDLCLPTWGCLWED (on phage) [RBC-R13]	binds		
B9	binds		binding result (rabbit serum albumin [2]): binds
Ac-ICLPRWGCLWED-NH2 (disulfide 2-8 (inferred), free peptide) [SA27]		86700 nM	
B10		1380 nM	
LRIFEDICLPKWGCLWGEGF (on phage) [RB-B14]	binds		binding result (rabbit serum albumin [2]): binds
DTCDDLVQLGLECWA (on phage) [RD-R11]	binds		
Ac-RLIEDICLPRWGCLWE-NH2 (disulfide 7-13 (inferred), free peptide) [SA29]		400 nM	
B11		360 nM	
QMHMMDICLPKWGCLWGDTS (not fully specified (bridges); cysteine pairing not given here, on phage) [RB-B9]	binds		binding result (rabbit serum albumin [2]): binds
EEDLCLPVWGCLWGA (on phage) [RBC-R14]	binds		

— patent US20060073152A1 (Genentech, published 2006)
